{"source": "patent US20250228957A1", "about": "(BIOHAVEN THERAPEUTICS, published 2025)", "binders": {"B1": {"name": "ABT030 (chimeric LALA PA mutant Km55 antibody) (antibody, human IgG1, kappa, L234A L235A, V domains shown)", "VH": "ELQLQESGPGLVKPSQSLSLTCSVTGYSIRSNYWGWIRKFPGNKMEWMGYITYSGGTYYNPSLKSRISITRDTSKNQFFLQLTSVTTEDTATYYCTRWGDWYFDFWGPGTKVTVSP", "VL": "DVVLTQTPPPLSVAIGQSVSISCKSSQSLVHTDGKTYLHWLLQSPGQSPKLLIYQVSNLGSGVPDRFSGTGSQKDFTLKISRVEAEDLGVYYCVQATHFPLTFGIGTKLELQR"}}, "key": {"[1]": {"target": "Deglycosylated IgA (dg-IgA) (human, UniProt P01876-1 1-353, Human serum IgA was treated with PNGase, neuraminidase, and galactosidase; conjugated to Alexa Fluor 594 in the cell uptake assays)", "sequence (P01876 other isoform, or with tags, fused parts or gaps)": "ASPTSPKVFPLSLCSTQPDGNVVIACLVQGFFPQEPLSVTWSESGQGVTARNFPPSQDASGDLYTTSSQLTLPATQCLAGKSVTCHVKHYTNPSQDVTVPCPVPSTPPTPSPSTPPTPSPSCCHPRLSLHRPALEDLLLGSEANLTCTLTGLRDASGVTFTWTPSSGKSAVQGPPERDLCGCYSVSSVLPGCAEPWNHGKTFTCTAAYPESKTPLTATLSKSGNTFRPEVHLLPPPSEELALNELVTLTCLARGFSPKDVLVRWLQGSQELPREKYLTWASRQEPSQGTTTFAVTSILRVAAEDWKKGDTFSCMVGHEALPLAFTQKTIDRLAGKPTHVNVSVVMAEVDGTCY", "test": "cell-based or functional assay"}, "Total IgA": {"target": "Total IgA", "test": "cell-based or functional assay"}}, "data": [{"binder": "B1", "values": [{"measurement": "EC50, Assay #1, uptake of A594-labelled cargo by HEK293 (+ASGPR) cells", "setting": "[1]", "value": 0.353, "unit": "nM"}, {"measurement": "EC50, Assay #3, uptake of A594-labelled cargo by HEK293 (+ASGPR) cells", "setting": "[1]", "value": 3.53, "unit": "nM"}, {"measurement": "S/N, Assay #1, uptake of A594-labelled cargo by HEK293 (+ASGPR) cells", "setting": "[1]", "value": 4.3, "unit": "signal-to-noise ratio"}, {"measurement": "S/N, Assay #2, uptake of A594-labelled cargo by HEK293 (+ASGPR) cells", "setting": "[1]", "value": 3.7, "unit": "signal-to-noise ratio"}, {"measurement": "S/N, Assay #3, uptake of A594-labelled cargo by HEK293 (+ASGPR) cells", "setting": "[1]", "value": 7.1, "unit": "signal-to-noise ratio"}, {"measurement": "EC50, Assay #1, uptake of A594-labelled cargo by HEK293 (+ASGPR) cells", "setting": "Total IgA", "value": 7.15, "unit": "nM"}]}]}
